# Experimental data taken from patent US20240279622A1, “COELENTERAZINE-UTILIZING LUCIFERASES WITH STABLE GLOW-TYPE LIGHT EMISSION AND METHODS OF PRODUCING AND USING THEREOF” (MASARYKOVA UNIVERZITA, priority 2021, published 2024).
# Numbering of substitutions follows the chain as printed. Names may count otherwise. Read-outs that look alike come from different tables or passages of the source.
# B1: RLuc8: Eight-point mutant of RLuc (A55T, C124A, S130A, K136R, A143M, M185V, M253L, and S287L) (protein)
# chain: MTSKVYDPEQRKRMITGPQWWARCKQMNVLDSFINYYDSEKHAENAVIFLHGNATSSYLWRHVVPHIEPVARCIIPDLIGMGKSGKSGNGSYRLLDHYKYLTAWFELLNLPKKIIFVGHDWGAALAFHYAYEHQDRIKAIVHMESVVDVIESWDEWPDIEEDIALIKSEEGEKMVLENNFFVETVLPSKIMRKLEPEEFAAYLEPFKEKGEVRRPTLSWPREIPLVKGGKPDVVQIVRNYNAYLRASDDLPKLFIESDPGFFSNAIVEGAKKFPNTEFVKVKGLHFLQEDAPDEMGKYIKSFVERVLKNEQ
# modifications: RLuc8
# B2: RLuc: Luciferase isolated from the sea pansy Renilla reniformis (protein)
# chain: B1 chain with T55A, A124C, A130S, R136K, M143A, V185M, L253M, L287S
# modifications: RLuc
# B3: AncHLD-RLuc: Reconstructed most-likelihood ancestral protein of Renilla reniformis luciferase and haloalkane dehalogenases (protein)
# chain: MVSASQRTTSTATGDEWWAKCKQVDVLDSEMSYYDSDPGKHKNTVIFLHGNPTSSYLWRNVIPHVEPLARCLAPDLIGMGKSGKLPNHSYRFVDHYRYLSAWFDSVNLPEKVTIVCHDWGSGLGFHWCNEHRDRVKGIVHMESVVSPLKGWESFPETARDIFQALRSEAGEEMVLKKNFFIERLLPSSIMRKLSEEEMDAYREPFVEPGESRRPTLTWPREIPIKGDGPEDVIEIVKSYNKWLSTSKDIPKLFINADPGFFSNAIKKVTKNWPNQKTVTVKGLHFLQEDSPEEIGEAIADFLNELTK
# modifications: Ancestral protein of Renilla reniformis luciferase
# Key:
# [1] = compared to RLuc; cited from earlier work
# [2] = Thermal unfolding by NanoDSF (tryptophan fluorescence); type: physicochemical; details: for Tm / Tonset: 100 mM potassium phosphate buffer pH 7.5, 1° C./min
# Description: Thermal unfolding was studied using NanoDSF Prometheus (NanoTemper, Germany) by monitoring tryptophan fluorescence over the temperature range of 20 to 90° C., at a heating rate of 1° C./min. The melting temperatures (Tonset and Tm) were evaluated directly by ThermControl v2.0.2.
# [3] = Stopped-flow pre-steady-state kinetics of substrate binding (tryptophan fluorescence quenching); details: 15° C.; for k+1: pH 7.5, induced-fit binding mechanism
# Description: The measurement was performed at 15° C. in 100 mM potassium phosphate buffer pH 7.5. Rapid mixing of the components was achieved using the Stopped-Flow SFM 3000 combined with the MOS-500 spectrometer (BioLogic, France). The reaction was initiated by mixing 75 μL of an enzyme with 75 μL of coelenterazine and then monitored by the change of native tryptophan fluorescence (295 nm excitation, 340±13 nm emission). The fluorescence changes were caused by the quenching effect of the coelenterazine substrate upon its binding by an enzyme. The experiment was designed in two different modes, varying either the concentration of the coelenterazine substrate or the concentration of an enzyme. Each kinetic trace was measured in seven consecutive replicates and averaged. The concentration of coelenterazine in the final reaction mixture ranged from 0.9 to 90 μM while the concentration of luciferase enzymes ranged from 0.4 to 94 μM.
# The collected double-exponential kinetic traces were fitted globally with the KinTek Explorer (KinTek Corporation, USA). The software allows for the input of a given kinetic model via a simple text description, and the program then derives the differential equations needed for numerical integration automatically. Numerical integration of rate equations searching a set of kinetic parameters that produce a minimum χ^2 value was performed using the Bulirsch-Stoer algorithm with adaptive step size, and nonlinear regression to fit data was based on the Levenberg-Marquardt method. Residuals were normalized by sigma values for each data point. The standard error was calculated from the covariance matrix during nonlinear regression. In addition to standard error values, more rigorous analysis of the variation of the kinetic parameters was accomplished by confidence contour analysis by using FitSpace Explorer (KinTek Corporation, USA). In these analyses, the lower and upper limits for each parameter were derived from the confidence contour obtained from setting the χ^2 threshold at 0.95.
# The time-course of the fluorescence quenching upon substrate binding was described with Equation (7) according to the induced-fit binding mechanism and the mechanism was fit directly to the collected kinetic data to obtain the values of elementary rate constants describing the substrate binding process. The quality of the best fits was compared in terms of χ^2 values, “chi-by-eye” assessment, and confidence contour analysis assessing constraint and independency of the determined parameters which confirmed that the obtained values are well-defined by the collected kinetic data.
# [4] = Anaerobic equilibrium binding of coelenterazine substrate (fluorescence)
# Description: The experiments were performed under strictly anaerobic conditions to prevent enzymatic oxidation of interacting ligands. To do so, all the equipment and material, including water, buffer, pipettes, tips, syringes, microplates, and sealing, were made anaerobic by incubating them overnight in the anaerobic glovebox Belle MR2 (Belle Technology, UK). The box was filled with ultra-high purity (UHP) nitrogen atmosphere containing the residual oxygen concentration of 2.3 ppm, as determined by the oxygen meter O2M-3 (Belle Technology, UK). Liquids were aliquoted to the volume of maximally 50 mL and were stirred overnight in the box to release any dissolved oxygen. Two hours prior to the experiment, a closed bottle with an evacuated lyophilized enzyme (oxygen depleted) was put into the glovebox, dissolved with anaerobic water, and incubated to remove any remaining oxygen possibly dissolved in the solution. Similarly, the stock solution of coelenterazine or coelenteramide in ethanol, which was long-term stored in a freezer under the nitrogen atmosphere without oxygen, was put into the glovebox in a closed bottle. A small aliquot of coelenterazine/coelenteramide was transferred into a new empty bottle and kept open for about 20 minutes to remove the remaining dissolved oxygen. After the incubation, a few microliters of an enzyme were mixed with the same amount of coelenterazine, and the mixture was visually inspected for any possible bioluminescence. If no light was observed and the mixture remained yellow even after a minute, all the reagents were ready for anaerobic measurements.
# (§1) In the anaerobic glovebox, 200 μL of a differently concentrated enzyme was put into a separate well in a microplate and into each of these wells, 5 μL of coelenterazine or coelenteramide stock solution was added. As a blank, 200 μL of the enzyme was mixed with 5 μL of ethanol for each enzyme concentration. […] The extent of coelenterazine binding at each concentration was determined by measuring fluorescence spectra ranging from 480 to 580 nm upon excitation at 420 nm using the microplate spectrophotometer Varioskan LUX (Thermo Scientific, USA). Binding of coelenteramide was monitored by measuring fluorescence spectra ranging from 350 to 700 nm upon excitation at 330 nm. […]
# The obtained fluorescence spectra were visually inspected for characteristic peaks, and the value of the maximal fluorescence intensity Fluomax at these peaks was plotted against the enzyme concentration. The final value of the dissociation constant Kd was determined by fitting the dependence with the hyperbolic Equation (8) using the software Origin 6.1 (OriginLab, USA).
# [5] = Steady-state kinetic analysis of full-conversion cumulative luminescence curves; type: biochemical
# Description: Each luminescence trace was measured in 3 repetitions. The concentration of coelenterazine in the final reaction mixture ranged from 0.2 to 7.9 μM while the concentration of luciferase enzymes ranged from 17 to 640 nM.
# An updated protocol applying new standards for collecting and fitting steady-state kinetic data was used. Unlike the classical initial velocity analysis, which requires a sophisticated luminometer calibration and quantum yield evaluation, luminescence data were recorded when letting the reaction proceed to completion beyond the initial linear phase. The recorded luminescence traces (rate vs. time) were transformed to reaction progress curves corresponding to cumulative luminescence in time. The transformed kinetic data (product vs. time) were fitted globally with the KinTek Explorer (KinTek Corporation, USA). The software allows for the input of a given kinetic model via a simple text description, and the program then derives the differential equations needed for numerical integration automatically.
# Numerical integration of rate equations searching a set of kinetic parameters that produce a minimum χ^2 value was performed using the Bulirsch-Stoer algorithm with adaptive step size, and nonlinear regression to fit data was based on the Levenberg-Marquardt method. To account for fluctuations in experimental data, enzyme or substrate concentrations were slightly adjusted (5%) to derive best fits. Residuals were normalized by sigma values for each data point. The standard error was calculated from the covariance matrix during nonlinear regression. In addition to standard error values, more rigorous analysis of the variation of the kinetic parameters was accomplished by confidence contour analysis by using FitSpace Explorer (KinTek Corporation, USA). In these analyses, the lower and upper limits for each parameter were derived from the confidence contour obtained from setting χ^2 threshold at 0.9. The scaling factor, relating luminescence signal to product concentration, was applied as one of the fitted parameters, well constrained by end-point levels of kinetic traces recorded at particular substrate concentrations. Depletion of the available substrate after the reaction was ensured by repeated injection of the fresh enzyme.
# The steady-state model, described by Equation (4), was used to obtain the values of turnover number kcat, Michaelis constant Km, and equilibrium dissociation constant for enzyme-product complex Kp. A conservative estimate for diffusion-limited substrate and product binding k1 and k3 (100 μM^−1·s^−1) was used as a fixed value to mimic the rapid equilibrium assumption. An alternative form of the model, described by Equation (5), was used to obtain estimates of kcat/Km directly by setting k−1=0.
# [6] = Anaerobic equilibrium binding of coelenteramide product (fluorescence); details: pH 7.5, 30° C., read-out: Dissociation constant Kd, Coelenteramide product
# Description: The experiments were performed under strictly anaerobic conditions to prevent enzymatic oxidation of interacting ligands. To do so, all the equipment and material, including water, buffer, pipettes, tips, syringes, microplates, and sealing, were made anaerobic by incubating them overnight in the anaerobic glovebox Belle MR2 (Belle Technology, UK). The box was filled with ultra-high purity (UHP) nitrogen atmosphere containing the residual oxygen concentration of 2.3 ppm, as determined by the oxygen meter O2M-3 (Belle Technology, UK). Liquids were aliquoted to the volume of maximally 50 mL and were stirred overnight in the box to release any dissolved oxygen. […] If no light was observed and the mixture remained yellow even after a minute, all the reagents were ready for anaerobic measurements.
# as §1, with “added.” for “added. As a blank, 200 μL of the enzyme was mixed with 5 μL of ethanol for each enzyme concentration.”
# [7] = pH 7.5
# Description: Solid coelenterazine was dissolved in ice-cold ethanol and stored under a nitrogen atmosphere in dark glass vials at −20° C. Before each measurement, the concentration and maintained quality of the ethanol stock solutions were verified spectrophotometrically. A buffer solution of coelenterazine was prepared by mixing an appropriate volume of the ethanol stock solution with 100 mM phosphate buffer pH 7.5 immediately before the measurement. Tested luciferase enzyme samples were dissolved in the same 100 mM phosphate buffer pH 7.5. The enzymatic reaction was initiated inside the microplate reader FLUOstar OPTIMA (BMG Labtech, Germany) by the automatic addition of 225 μL buffer solution of coelenterazine into a microplate well containing 25 μL of enzyme solution. The resulting bioluminescence activity traces were collected at 37° C. until the luminescence intensity decreased to less than 0.5% of its maximal measured value. Each luminescence trace was measured in 3 repetitions. The concentration of coelenterazine in the final reaction mixture was 2.2 μM while the concentration of luciferase enzymes was 50 nM. The obtained luminescence kinetic data were fitted to an exponential decay or a logistic model using Origin 6.1 (OriginLab, USA) and the value of half-life t1/2, defined as the time when the initial luminescence signal decreased to 50%, was calculated.
# [8] = from Loening et al. (2006); cited from earlier work
# [9] = Luminescence specific activity of the ancestral protein; type: biochemical; details: 7.9 μM coelenterazine, 37° C., compared to RLuc
# Description: Both the coelenterazine substrate and the AncHLD-RLuc enzyme were dissolved in 100 mM potassium phosphate buffer pH 7.5 and their resulting concentrations in the reaction mixture were 7.9 μM coelenterazine, 1.5 nM RLuc, and 2.8 μM AncHLD-RLuc. Bioluminescence activity traces were collected at 37° C. over the first 72.5 seconds immediately after injection of the substrate into the enzyme solution. The activity of each enzyme sample was measured in at least three independent experiments. The collected luminescence curves were integrated to obtain a linear increase of cumulative luminescence over time, while the slope gave the final value of activity, represented in RLU·s^−1. For each enzyme, the calculated activity was related to one milligram of the enzyme to get the final value of specific activity in RLU·s^−1·mg^−1.
Molecule,Bioluminescence activity improvement [1],Tm [2],Tonset [2],k+2 ([3]; pH 7.5),k−1 ([3]; pH 7.5),k−2 ([3]; pH 7.5),k+1 [3],"Kd ([4]; anaerobic, pH 7.5, 30° C., read-out: Dissociation constant Kd, Coelenterazine substrate)",Kd ratio substrate/product ([4]; ratio),"kcat ([5]; 100 mM phosphate buffer pH 7.5, 37° C.)","Kd ([5]; 100 mM phosphate buffer pH 7.5, 37° C., read-out: Kp (equilibrium dissociation constant for enzyme-product complex))",Glow-type effectivity ([5]; kcat/Km divided by Km/Kp),Kd [6],Half-life (t1/2) [7],kcat [8],Apparent melting temperature higher than RLuc ([2]; difference to RLuc),Bioluminescence activity lower than the modern luciferase enzyme [9]
B1,4.3 fold,45.0 ± 0.1 °C,35.2 ± 0.1 °C,26.6 ± 1.1 s⁻¹,305 ± 5 s⁻¹,23.4 ± 0.2 s⁻¹,2.35 ± 0.04 µM⁻¹ s⁻¹,37 ± 15 µM,1.7 ± 0.7,4.7 ± 0.1 s⁻¹,1180 ± 50 nM,2.3 ± 0.2,22 ± 2 µM,0.106 ± 0.001 min,,,
B2,,43.7 ± 0.1 °C,36.3 ± 0.2 °C,,,,,,,,,,,0.274 ± 0.001 min,3.9 ± 0.4 s⁻¹,,
B3,,64.9 ± 0.1 °C,57.4 ± 0.1 °C,,0.118 ± 0.071 s⁻¹,,0.003 ± 0.003 µM⁻¹ s⁻¹,,,,,,,,,21.2 °C,"> 100,000 fold"
